Assay results: patent US6379670B1, “Methods for treatment of multiple sclerosis using peptide analogs of human myelin basic protein” (Neurocrine Biosciences, Inc., priority 1994, dated 2002)
Non-standard residues stand in square brackets, D forms with d. No end group written: not given here.

Experiments:
[1] = tested on: Dr2b restricted human T cell clones reactive to MBP; experiment: Human T cell proliferation, Dr2b restricted clones; format: cell-based; conditions: Dr2b restricted clone 5F6, 50 μM, FIG. 19
Description: Human T cells reactive to MBP (83-99) may alternatively be used to measure the ability of the peptide analog to inhibit proliferation of T cells induced by native MBP (83-99) peptide. MBP-specific T cells may be obtained as previously described by Martin et al., J. Immunol. 148:1359-1366, 1992. Briefly, T cell lines are established by culture of human T cells with irradiated, DR-matched peripheral blood cells in MEM supplemented with 2 mM L-glutamine, 50 μg/ml gentamicin, penicillin and streptomycin, 100 U/ml rIL-2, and 10% human AB negative serum. Proliferation of these T cell lines is stimulated by culturing a clone with varying concentration (1.1-30 μM) of native […] peptide, 50 μM of the peptide analog or SWM peptide, in the presence of irradiated, DR matched peripheral blood cells, following incubation for approximately 60 hours, the cells are pulsed with ^3H-thymidine for 12 hours and harvested. The amount of incorporated ^3H-thymidine is measured.
The ability of the peptide analogs NBI-5719, 5748, 5765, 5788 and 5789 (SEQ ID NOs: 4-8 respectively) to affect human T cell proliferation was assessed. A constant amount of peptide analog or the control peptide SWM (50 μM) was cultured with varying concentrations of native MBP(83-99) peptide (1.1-30 μM) in the presence of irradiated, DR matched peripheral blood cells and T cell clones derived from various MS patients. Human T cells (1×10^6) were cultured with DR matched, irradiated peripheral blood cells (PBL, 5×10^6) in medium containing IMDM supplemented with 3 μM MBP83-99, 2 mM L-glutamine, 50 μg/ml gentamicin penicillin/streptomycin, 100 U/ml r1L-2 and 10% human AB-negative serum. Cells were cultured for approximately 60 hours, pulsed with tritiated thymidine for 12 hours, and harvested. The amount of tritiated thymidine incorporated was measured, and the data represented as the mean plus or minus the standard error of the mean of replicate samples.
The ability of the peptide analog to inhibit the proliferative response of MBP-reactive T cells isolated from Dr2b (DrB1* 1501) individuals was determined. A constant amount of NBI-5788 (50 μM) was cultured with varying concentrations of native peptide (1.1-30 μM) in the presence of irradiated, DR matched peripheral blood cells and T cell clones derived from various MS patients.

[2] = tested on: Dr2b-restricted T cell clone 5F6; experiment: Cytokine production (TNF-α, IFN-γ) by T cell clone 5F6, EIA; format: cell-based, human
Description: As discussed in detail below, the production of cytokines may also be assessed. In particular, TNF-α and IFN-γ production are especially interesting. These pro-inflammatory cytokines are thought to play a role in the pathogenesis of the disease. Briefly, T cell clone is incubated in the presence of stimulating MBP peptide and peptide analog or control peptide (SWM) or medium only. After a 24 hour incubation, the levels of TNF-α and IFN-γ in the supernatant are determined using commercially available EIA kits (Endogen, Cambridge, Mass.).
The ability of the peptide analog ligand to influence cytokine production was next measured. The Dr2b-restricted T cell clone 5F6 was incubated in the presence of 3 μM MBP peptide with either 10 μM of NBI-5788 (SEQ ID NO:7) or SWM or medium only. As a control, cells were cultured in the presence of medium alone. After 24 hours, supernatants were removed and the levels of tumor necrosis factor alpha (TNF-α) and interferon-y (IFN-γ) determined using commercially available EIA kits.

[3] = tested on: NBI-5788-reactive or MBP-reactive T cell lines from MS patients; experiment: Cross-reactivity of T cell lines (TCL) from MS patients, 3H-thymidine proliferation; format: cell-based, human
Description: To evaluate the degree of NBI-5788-specific reactivity induced by NBI-5788 treatment, we determined whether NBI-5788-reactive T cell lines generated from untreated or NBI-5788-treated patients cross-reacted with whole MBP or MBP peptide 83-99. T cell lines were generated from positive cultures in the frequency analysis by an additional cycle of co-culture with antigen. Specificity of positive lines was tested by culturing 2×10^4 T cells/well in triplicate with whole MBP, MBP83-99, NBI-5788 or medium alone in the presence of 10^5 APCs in a final volume of 200 μl/well. Two days later supernatants were pooled from replicate wells and frozen at −80° C. Wells were then pulsed with [^3H]-thymidine (1 μCi/well) for the final 18 hours of culture.

[4] = tested on: peripheral blood mononuclear cells; experiment: Frequency of antigen-reactive T cells in PBMC of untreated MS patients and healthy donors (split-well); format: cell-based, human; set-up: mean frequency of antigen-reactive T cells / frequency of antigen-reactive T cells in healthy subjects / antigen-reactive T cells, % Positive: concentration or dose not given beside the values
Description: Immune response to the peptide analog was assessed by measuring the frequency of proliferating peripheral blood T cells using a split-well microtiter method (i.e., number of positive wells {Δ cpm >1000, stimulation index>3} divided by the total number of wells assayed). Peripheral blood mononuclear cells (PBMC) were isolated from venous blood by Ficoll-Hypaque density gradient centrifugation, washed twice and resuspended in complete tissue culture medium (Iscove's modification of Dulbecco's medium containing 10% heat-inactivated, pooled, human A-B serum, 2 mM L-glutamine, 100 U/ml penicillin/streptomycin and 50 μg/ml gentamycin). PBMC from each patient were seeded at 10^5/well in 96 well, U-bottom microtiter plates containing 25 μg/ml whole MBP, 10 μg/ml NBI-5788 or medium alone in a volume of 200 μl. Three days later supernatants were collected and frozen at −80° C. and fresh medium containing IL-2 (10 U/ml) was added. IL-2-containg medium was refreshed on Day 7 and Day 11. On Day 14, the frequency of antigen response was determined by the “split well” technique. Briefly, cells from one primary well were split into replicate experimental wells in the presence of 10^5 freshly isolated autologous, irradiated peripheral blood mononuclear cells (APCs): one containing the original antigen (25 μg/ml) and one without antigen. Two days later supernatants were collected and the wells pulsed with 1 µCi/well [^3H]-thymidine ([…]) for the final 18 hours of culture. ^3H-Thymidine uptake was measured in a beta counter. […] The association between T cell frequency and NBI-5788 treatment was evaluated by χ^2 contingency analysis.

[5] = tested on: T cell lines LW 80, 88, 90 and 93; experiment: Specificity and phenotype of APL-reactive T cell lines from patient; format: cell-based, human; conditions: 25 μg/ml antigen
Description: Four cell cultures from one patient ([…], 32% frequency) showing a response (> three-fold over background) were expanded into cell lines (LW 80, 88, 90 and 93) by incubation in IL-2 for 11-14 days (1-2 passages). Once sufficient cells had grown up, they were cultured with either medium alone or 25 μg/ml of either whole MBP, MBP (83-99) or APL NBI-5788. After 24 hours, the supernatants were collected and the level of cytokines determined (see FIGS. 22 to 26). The remaining cultures were pulsed with radiolabeled thymidine and the extent of incorporation determined.

[6] = patient MS-1, dose 20 mg, TCL 4
[7] = subject MS-2, untreated MS patient
[8] = subject MS-3, untreated MS patient
[9] = subject MS-7, untreated MS patient
[10] = subject MS-8, untreated MS patient
[11] = subject MS-9, untreated MS patient
[12] = subject MS-10, untreated MS patient
[13] = subject MS-11, untreated MS patient

**Q.** Which results are given for “NBI-5789: peptide analog of MBP (83-99), SEQ ID NO:8, sequence in FIG. 8 ([dA]KPVVHAFANIVTPRTP)”?
**A.** inhibition of MBP-dependent proliferation of clone 5F6 [1]: inhibited the MBP-dependent proliferation in a concentration dependent fashion; stimulation of cytokine production over background by the analog itself ([2]; even at concentrations of 50 μM (data not shown)): None

B1: Whole MBP: whole human myelin basic protein (protein, UniProt P02686 1-304, looked up)
Myelin basic protein: MGNHAGKRELNAEKASTNSETNRGESEKKRNLGELSRTTSEDNEVFGEADANQNNGTSSQDTAVTDSKRTADPKNAWQDAHPADPGSRPHLIRLFSRDAPGREDNTFKDRPSESDELQTIQEDSAATSESLDVMASQKRPSQRHGSKYLATASTMDHARHGFLPRHRDTGILDSIGRFFGGDRGAPKRGSGKDSHHPARTAHYGSLPQKSHGRTQDENPVVHFFKNIVTPRTPPPSQGKGRGLSLSRFSWGAEGQRPGFGYGGRASDYKSAHKGFKGVDAQGTLSKIFKLGGRDSRSGSPMARR
**Q.** What does the source list for B1?
**A.** proliferative response of MBP-reactive TCL to antigen ([3]; patient MS-1, dose 20 mg, TCL 2): 25,700 ± 5,266; proliferative response of MBP-reactive TCL to antigen [3, 6]: 9,498 ± 745; proliferative response of NBI-5788-reactive TCL to antigen [3, 6]: 772 ± 341; proliferative response of MBP-reactive TCL to antigen ([3]; patient MS-1, dose 20 mg, TCL 5): 13,102 ± 1,286; proliferative response of MBP-reactive TCL to antigen ([3]; patient MS-1, dose 20 mg, TCL 10): 54,562 ± 207; proliferative response of MBP-reactive TCL to antigen ([3]; patient MS-1, dose 20 mg, TCL 14): 23,564 ± 854; proliferative response of MBP-reactive TCL to antigen ([3]; patient MS-1, dose 20 mg, TCL 26): 48,157 ± 1,207; proliferative response of NBI-5788-reactive TCL to antigen ([3]; patient MS-1, dose 20 mg, TCL 36): 2,515 ± 532; proliferative response of MBP-reactive TCL to antigen ([3]; patient MS-1, dose 20 mg, TCL 45): 63,810 ± 1,117; proliferative response of MBP-reactive TCL to antigen ([3]; patient MS-2, dose 20 mg, TCL 14): 16,000 ± 1,133; proliferative response of MBP-reactive TCL to antigen ([3]; patient MS-3, Pretreat., TCL 9): 9,736 ± 247; proliferative response of NBI-5788-reactive TCL to antigen ([3]; patient MS-3, dose 20 mg, TCL 2): 1,785 ± 66; proliferative response of NBI-5788-reactive TCL to antigen ([3]; patient MS-3, dose 20 mg, TCL 4): 298 ± 41; proliferative response of NBI-5788-reactive TCL to antigen ([3]; patient MS-3, dose 20 mg, TCL 18): 437 ± 191; proliferative response of NBI-5788-reactive TCL to antigen ([3]; patient MS-3, dose 20 mg, TCL 30): 557 ± 210; proliferative response of MBP-reactive TCL to antigen ([3]; patient MS-4, dose 20 mg, TCL 7): 5,308 ± 1,269; proliferative response of NBI-5788-reactive TCL to antigen ([3]; patient MS-4, dose 20 mg, TCL 18): 5,983 ± 5602; proliferative response of NBI-5788-reactive TCL to antigen ([3]; patient MS-5, dose 20 mg, TCL 15): 13,151 ± 9,967; proliferative response of NBI-5788-reactive TCL to antigen ([3]; patient MS-5, dose 20 mg, TCL 39): 6,717 ± 558; proliferative response of NBI-5788-reactive TCL to antigen ([3]; patient MS-5, dose 20 mg, TCL 43): 3,584 ± 1,068; proliferative response of NBI-5788-reactive TCL to antigen ([3]; patient MS-6, dose 10 mg, TCL 22): 2,167 ± 53; proliferative response of NBI-5788-reactive TCL to antigen ([3]; patient MS-6, dose 10 mg, TCL 38): 935 ± 65; proliferative response of NBI-5788-reactive TCL to antigen ([3]; patient MS-7, dose 5 mg, TCL 12): 1,343 ± 498; proliferative response of NBI-5788-reactive TCL to antigen ([3]; patient MS-7, dose 5 mg, TCL 28): 2,326 ± 1,300; proliferative response of MBP-reactive TCL to antigen ([3]; patient MS-7, dose 5 mg, TCL 46): 17,019 ± 2,294; proliferative response of MBP-reactive TCL to antigen ([3]; patient MS-8, Placebo, TCL 26): 68,704 ± 19,348; proliferative response of MBP-reactive TCL to antigen ([3]; patient MS-8, Placebo, TCL 28): 47,279 ± 4,539; proliferative response of MBP-reactive TCL to antigen ([3]; patient MS-8, Placebo, TCL 38): 63,253 ± 5,006; proliferative response of MBP-reactive TCL to antigen ([3]; patient MS-8, Pretreat., TCL 22): 91,447 ± 3,378; proliferative response of MBP-reactive TCL to antigen ([3]; patient MS-8, Pretreat., TCL 31): 7,379 ± 123; proliferative response of MBP-reactive TCL to antigen ([3]; patient MS-8, Pretreat., TCL 47): 47,975 ± 10,326; antigen-reactive T cells, Positive/total wells ([4]; Total of healthy donors): 3/96; antigen-reactive T cells, Positive/total wells ([4]; Total of untreated MS patients): 56/312; antigen-reactive T cells, % Positive ([4]; healthy donor HD-1): 6.3%; antigen-reactive T cells, Positive/total wells ([4]; healthy donor HD-1): 3/48; antigen-reactive T cells, % Positive ([4]; healthy donor HD-2): 0%; antigen-reactive T cells, Positive/total wells ([4]; healthy donor HD-2): 0/48; antigen-reactive T cells, % Positive [4, 7]: 6.8%; antigen-reactive T cells, Positive/total wells [4, 7]: 3/44; antigen-reactive T cells, % Positive [4, 8]: 25.0%; antigen-reactive T cells, Positive/total wells [4, 8]: 11/44; antigen-reactive T cells, % Positive [4, 9]: 11.4%; antigen-reactive T cells, Positive/total wells [4, 9]: 5/44; antigen-reactive T cells, % Positive [4, 10]: 52.3%; antigen-reactive T cells, Positive/total wells [4, 10]: 23/44; antigen-reactive T cells, % Positive [4, 11]: 16.7%; antigen-reactive T cells, Positive/total wells [4, 11]: 8/48; antigen-reactive T cells, % Positive [4, 12]: 2.3%; antigen-reactive T cells, Positive/total wells [4, 12]: 1/44; antigen-reactive T cells, % Positive [4, 13]: 11.4%; antigen-reactive T cells, Positive/total wells [4, 13]: 5/44; frequency of antigen-reactive T cells in healthy subjects ([4]; two healthy subjects, MBP-reactive cells detected in one of two): 6.3%; mean frequency of antigen-reactive T cells ([4]; untreated MS patients (n=7)): 18.0±6.3%; IFN-γ production ([2]; 3 μM MBP peptide, 24 hours, FIG. 21): ~160 pg/mL; thymidine incorporation of T cell line ([5]; Line 80 of patient): 1,457 ± 195 cpm; thymidine incorporation of T cell line ([5]; Line 88 of patient): 977 ± 121 cpm; thymidine incorporation of T cell line ([5]; Line 90 of patient): 1,604 ± 328 cpm; thymidine incorporation of T cell line ([5]; Line 93 of patient): 630 ± 28 cpm
